Experimental data taken from publication PMC8894350, “Mechanism of cooperative N-glycan processing by the multi-modular endoglycosidase EndoE” (Nature Communications, 2022).

Experiments:
[1] = system: CC(=O)N[C@H]1[C@H](Oc2ccc([N+](=O)[O-])cc2)O[C@H](CO)[C@@H](O)[C@@H]1O; assay: purified protein; assay type: biochemical, Enterococcus faecalis; details: PCTP buffer pH 8, 5 nM enzyme, 0.09-12 mM substrate, isolated GH20 domain
EndoE-GH18L = target: T1, EndoE-GH18L (Enterococcus faecalis, UniProt Q6U890); assay: X-ray crystal structure of the complex, […] Å; assay type: binding; details: co-crystallised with 2.5 mM Man5GlcNAc; pH 6.5 Bis-Tris propane; GH18 active-site groove
T1 construct: gene ndoE; GH18 domain plus linker region (3HB-1, 3HB-2), residues 56-486; GST tag cut by TEV (GSG linker); E. coli BL21(DE3)
T1 sequence (Q6U890 entry or part of it): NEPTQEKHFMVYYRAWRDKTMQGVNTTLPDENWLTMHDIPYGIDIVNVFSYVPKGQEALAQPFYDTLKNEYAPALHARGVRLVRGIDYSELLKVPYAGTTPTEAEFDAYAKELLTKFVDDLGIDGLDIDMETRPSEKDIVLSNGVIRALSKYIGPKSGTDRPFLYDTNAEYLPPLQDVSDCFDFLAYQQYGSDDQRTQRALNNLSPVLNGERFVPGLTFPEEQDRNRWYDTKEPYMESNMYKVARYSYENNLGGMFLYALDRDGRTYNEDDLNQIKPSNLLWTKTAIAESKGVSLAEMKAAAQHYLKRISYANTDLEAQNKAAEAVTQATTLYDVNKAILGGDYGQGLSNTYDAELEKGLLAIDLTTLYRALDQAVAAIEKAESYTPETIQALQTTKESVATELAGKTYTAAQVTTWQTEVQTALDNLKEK

[2] = system: CC(=O)N[C@H]1[C@H](Oc2ccc([N+](=O)[O-])cc2)O[C@H](CO)[C@@H](O)[C@@H]1O; assay: purified protein; details: PCTP buffer pH 8, 5 nM enzyme, 0.09-12 mM substrate, GH20 active site within full-length EndoE

For EndoE-GH20 (Enterococcus faecalis), the Km [1] was 970 µM and the kcat [1] was 86 s⁻¹.
In the case of CC(=O)N[C@H]1C(O)O[C@H](CO)[C@@H](O[C@@H]2O[C@H](CO[C@H]3O[C@H](CO[C@H]4O[C@H](CO)[C@@H](O)[C@H](O)[C@@H]4O)[C@@H](O)[C@H](O[C@H]4O[C@H](CO)[C@@H](O)[C@H](O)[C@@H]4O)[C@@H]3O)[C@@H](O)[C@H](O[C@H]3O[C@H](CO)[C@@H](O)[C@H](O)[C@@H]3O)[C@@H]2O)[C@@H]1O (some centres unmarked) [Man5, Man5GlcNAc], the “X-ray crystal structure of the complex, 2.6 Å” value (EndoE-GH18L) was “crystal structure of EndoE-GH18L in complex with the Man5GlcNAc (Man5) product”.
In the case of EndoE (Enterococcus faecalis), the Km [2] was 450 µM and the kcat [2] was 41 s⁻¹.
